Measurements reported in US20140194361A1 (published 2014).
No end group written: not given here.

Target: α5β1 integrin receptor on primary mesangial cells
Test: cell-based or functional assay

inhibition of MC adhesion to fibronectin-coated plates, enhanced potency of D- vs. E-control peptide compared to GRGDSP, at 200 µg/ml: 2.4 fold | inhibition of MC adhesion to fibronectin-coated plates, enhanced potency of D- vs. E-control peptide compared to GRGDSP, at 400 µg/ml: 2.8 fold | inhibition of mesangial cell binding to FN-coated plates, potency against GRGDSP: ~3 fold more potent than GRGDSP
Binder: CGRGDSP (also: cyclic GRGDSP part, ring closure not given here) [modified CGRGDSP peptide (D-peptide)]
